The values that follow come from US20140335077A1, “Compositions and Methods for the Treatment of Cancer Using IGF-IR Antagonists and MAPK/ERK Inhibitors” (priority 2013, published 2014).

Assay [1] has as its target T1, IGF-1R (Mus musculus, UniProt Q60751).
T1 construct: MEF cells expressing full length, wild type IGF-1R; endogenous in cells; host or cells: MEF, and MEF knockout for β-arrestin1, β-arrestin2 or both
As to the kind of experiment: IGF-1R degradation in MEF cells (β-arrestin knockouts, Δ1245 IGF-1R), WB. The following applies: 24 h. The format is cell-based. How it is done: (§1) Protein lysates were analyzed by WB for IGF-1R and GAPDH as a loading control. […] Data correspond to the mean±SEM from three independent experiments. (B,D) Cell viability of the CP-treated cells for 48 h, in the absence (SFM) or presence of serum, was evaluated by PrestoBlue reagent. […] Data correspond to the mean±SEM from three independent experiments.
(§2) Appropriate primary antibody was incubated overnight at 4° C.

For assay [2], the system named is IGF-1R. The assay is described as above. The format is cell-based, mouse. The following applies: R− MEF expressing Δ1245 IGF-1R; over 48 h. How it is done: as §1, §2
Assay [3] concerns IGF-1R, AKT and ERK phosphorylation. As to the kind of experiment: IGF-1R signaling activation in ES cell lines (WB for P-IGF-1R, P-AKT, P-ERK). The format is cell-based. As to conditions: serum starved ES cells.

T1 sequence (Q60751 31-737 limits assumed): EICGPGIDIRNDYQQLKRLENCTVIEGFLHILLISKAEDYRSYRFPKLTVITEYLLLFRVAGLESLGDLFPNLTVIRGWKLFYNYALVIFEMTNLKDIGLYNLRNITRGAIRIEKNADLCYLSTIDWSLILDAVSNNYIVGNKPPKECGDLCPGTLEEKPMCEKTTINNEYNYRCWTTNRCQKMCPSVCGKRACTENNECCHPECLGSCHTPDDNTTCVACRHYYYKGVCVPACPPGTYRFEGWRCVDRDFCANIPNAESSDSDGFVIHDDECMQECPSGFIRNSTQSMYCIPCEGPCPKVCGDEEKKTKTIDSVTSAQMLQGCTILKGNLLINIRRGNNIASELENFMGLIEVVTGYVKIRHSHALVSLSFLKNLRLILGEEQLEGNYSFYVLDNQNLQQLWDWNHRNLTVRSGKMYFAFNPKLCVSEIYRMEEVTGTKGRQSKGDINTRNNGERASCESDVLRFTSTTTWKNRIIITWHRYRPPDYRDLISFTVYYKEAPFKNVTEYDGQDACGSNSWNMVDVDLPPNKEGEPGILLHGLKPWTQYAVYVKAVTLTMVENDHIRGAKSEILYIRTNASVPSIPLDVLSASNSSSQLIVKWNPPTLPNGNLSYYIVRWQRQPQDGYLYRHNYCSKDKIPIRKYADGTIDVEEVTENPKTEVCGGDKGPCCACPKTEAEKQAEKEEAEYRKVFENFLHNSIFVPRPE
T1 sequence (Q60751 742-1373 limits assumed): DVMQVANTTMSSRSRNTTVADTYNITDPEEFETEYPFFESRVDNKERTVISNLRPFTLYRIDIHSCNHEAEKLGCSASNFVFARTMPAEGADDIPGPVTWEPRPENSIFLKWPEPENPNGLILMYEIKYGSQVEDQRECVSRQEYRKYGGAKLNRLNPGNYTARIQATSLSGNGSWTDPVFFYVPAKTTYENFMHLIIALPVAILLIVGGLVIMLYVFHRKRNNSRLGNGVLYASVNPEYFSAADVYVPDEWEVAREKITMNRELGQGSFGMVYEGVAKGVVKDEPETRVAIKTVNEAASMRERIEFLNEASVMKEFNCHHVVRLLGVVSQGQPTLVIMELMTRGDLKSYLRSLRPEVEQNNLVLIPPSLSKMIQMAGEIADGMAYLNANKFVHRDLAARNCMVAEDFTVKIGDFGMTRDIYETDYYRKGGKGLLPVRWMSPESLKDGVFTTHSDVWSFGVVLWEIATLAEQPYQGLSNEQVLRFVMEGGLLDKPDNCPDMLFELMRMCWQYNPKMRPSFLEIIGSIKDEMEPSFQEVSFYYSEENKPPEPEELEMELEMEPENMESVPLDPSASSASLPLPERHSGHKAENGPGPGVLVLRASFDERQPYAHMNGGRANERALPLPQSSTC

On to “IGF-1: classical ligand of IGF-1R, used at 50 ng/ml for stimulation”, for which the IGF-1R degradation result was “almost completely abolished” in assay [1] (MEF without β-arr1 (β1KO or β1/2 KO)); “drastically downregulated the receptor” in assay [1] (control MEF and β2KO cells (expressing β-arr1)). In addition, the “Degradation of truncated IGF-1R (Δ1245)” value in assay [2] is recorded as “resistant”. Further, the “Time to phosphorylation of the IGF-1R activation loop” value in assay [3] was at most 2 min.
